Assay results taken from paper PMC2615623 (Nucleic Acids Research, 2008).

How the values were obtained:
[1] = biological target: T1, His-tagged human RNASEH2C (human, UniProt Q8TDP1 1-164); experiment: SEC
T1 sequence (looked up): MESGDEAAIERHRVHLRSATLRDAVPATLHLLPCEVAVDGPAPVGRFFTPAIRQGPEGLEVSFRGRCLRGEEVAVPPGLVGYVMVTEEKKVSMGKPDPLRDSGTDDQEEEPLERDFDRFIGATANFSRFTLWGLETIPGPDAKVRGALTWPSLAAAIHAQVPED

[2] = biological target: T2, His-tagged human RNASEH2B (human, UniProt Q5TBB1 1-312); experiment: SEC
T2 sequence (looked up): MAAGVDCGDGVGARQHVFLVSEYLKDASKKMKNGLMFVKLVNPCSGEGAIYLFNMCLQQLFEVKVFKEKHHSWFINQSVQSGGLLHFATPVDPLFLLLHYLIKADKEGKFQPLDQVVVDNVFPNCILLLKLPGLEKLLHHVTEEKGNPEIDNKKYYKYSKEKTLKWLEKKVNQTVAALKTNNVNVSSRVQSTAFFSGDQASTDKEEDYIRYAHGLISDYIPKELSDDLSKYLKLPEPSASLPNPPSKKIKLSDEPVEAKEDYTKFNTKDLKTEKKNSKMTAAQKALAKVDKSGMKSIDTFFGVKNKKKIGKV

B1: His-tagged human RNASEH2A (natural protein, UniProt O75792 1-299, looked up)
chain: MDLSELERDNTGRCRLSSPVPAVCRKEPCVLGVDEAGRGPVLGPMVYAICYCPLPRLADLEALKVADSKTLLESERERLFAKMEDTDFVGWALDVLSPNLISTSMLGRVKYNLNSLSHDTATGLIQYALDQGVNVTQVFVDTVGMPETYQARLQQSFPGIEVTVKAKADALYPVVSAASICAKVARDQAVKKWQFVEKLQDLDTDYGSGYPNDPKTKAWLKEHVEPVFGFPQFVRFSWRTAQTILEKEAEDVIWEDSASENQEGLRKITSYFLNEGSQARPRSSHRYFLERGLESATSL
stoichiometry N [1]: 1 A:B:C
stoichiometry N [2]: 1 A:B:C
